How the values were obtained:
[1] = biological target: T1, Zymomonas mobilis glucose 6-phosphate dehydrogenase EC 1.1.1.49 (Zymomonas mobilis subsp. mobilis, UniProt P21907); format: biochemical; details: assay conditions: 25° C., 50 mM Tris-Cl buffer, pH 8.0
T1 construct: endogenous in cells; host or cells: Zymomonas mobilis cells (enzyme extracted and purified from the organism itself)
T1 sequence (P21907 1-485): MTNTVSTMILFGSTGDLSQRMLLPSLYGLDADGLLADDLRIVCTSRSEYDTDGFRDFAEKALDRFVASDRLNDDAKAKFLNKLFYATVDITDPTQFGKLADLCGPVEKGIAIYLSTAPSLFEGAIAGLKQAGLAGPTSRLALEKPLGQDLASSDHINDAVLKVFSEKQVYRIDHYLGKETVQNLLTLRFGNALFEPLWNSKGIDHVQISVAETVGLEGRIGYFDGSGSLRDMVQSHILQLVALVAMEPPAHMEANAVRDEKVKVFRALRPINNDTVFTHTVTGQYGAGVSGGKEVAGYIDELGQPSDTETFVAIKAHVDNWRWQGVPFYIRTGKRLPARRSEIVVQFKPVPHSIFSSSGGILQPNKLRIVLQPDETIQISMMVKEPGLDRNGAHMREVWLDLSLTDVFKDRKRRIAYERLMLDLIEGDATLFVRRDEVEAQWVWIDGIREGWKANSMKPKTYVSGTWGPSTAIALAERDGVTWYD

[2] = biological target: T2, Zymomonas mobilis fructokinase EC 2.7.1.4 (Zymomonas mobilis subsp. mobilis, UniProt Q03417); assay: Kinetic properties, sugar specificity and glucose inhibition of purified fructokinase; format: biochemical
T2 construct: endogenous in cells; host or cells: Zymomonas mobilis cells (enzyme extracted and purified from the organism itself)
T2 sequence (Q03417 1-301): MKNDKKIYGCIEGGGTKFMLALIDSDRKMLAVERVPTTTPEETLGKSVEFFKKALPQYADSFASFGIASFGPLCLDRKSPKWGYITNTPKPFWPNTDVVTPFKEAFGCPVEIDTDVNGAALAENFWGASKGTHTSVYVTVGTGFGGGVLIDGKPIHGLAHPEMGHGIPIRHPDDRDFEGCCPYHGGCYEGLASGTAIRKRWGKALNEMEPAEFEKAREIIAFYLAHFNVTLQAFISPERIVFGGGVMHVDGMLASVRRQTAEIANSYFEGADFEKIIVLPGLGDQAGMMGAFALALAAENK
Text: The active enzyme may be concentrated by ultrafiltration and stored frozen or freeze-dried.

[3] = substrate: O=C(CO)[C@@H](O)[C@H](O)[C@H](O)CO; assay: purified protein, by the assay type; format: biochemical, Zymomonas mobilis; details: other: assay conditions printed: 50 mM K-morpholino propane sulphonate buffer, 30 mM NaCl, 2 mM MgCl2 pH 6.8
[4] = substrate: Nc1ncnc2c1ncn2[C@@H]1O[C@H](COP(=O)(O)OP(=O)(O)OP(=O)(O)O)[C@@H](O)[C@H]1O; assay: purified protein, by the assay type; format: biochemical, Zymomonas mobilis; details: other: assay conditions printed: 50 mM K-morpholino propane sulphonate buffer, 30 mM NaCl, 2 mM MgCl2 pH 6.8
[5] = substrate: NC(=O)c1ccc[n+]([C@@H]2O[C@H](COP(=O)([O-])OP(=O)(O)OC[C@H]3O[C@@H](n4cnc5c(N)ncnc54)[C@H](O)[C@@H]3O)[C@@H](O)[C@H]2O)c1; assay: purified protein, by the assay type; format: biochemical, Zymomonas mobilis; details: other: assay conditions printed: 25° C., 50 mM Tris-Cl buffer, pH 8.0
[6] = substrate: NC(=O)c1ccc[n+]([C@@H]2O[C@H](COP(=O)([O-])OP(=O)(O)OC[C@H]3O[C@@H](n4cnc5c(N)ncnc54)[C@H](OP(=O)(O)O)[C@@H]3O)[C@@H](O)[C@H]2O)c1; assay: purified protein, by the assay type; details: other: assay conditions printed: 25° C., 50 mM Tris-Cl buffer, pH 8.0, pH 8.0
[7] = substrate: OC[C@H]1OC(O)[C@H](O)[C@@H](O)[C@@H]1O; assay: purified protein, by the assay type; details: other: approximate values, assay conditions: 25° C., 50 mM K-Morpholinopropane sulphonate, 30 mM NaCl, 2 mM MgCl2, pH 6.8, pH 6.8
[8] = substrate: Nc1ncnc2c1ncn2[C@@H]1O[C@H](COP(=O)(O)OP(=O)(O)OP(=O)(O)O)[C@@H](O)[C@H]1O; assay: Kinetic properties and sugar specificity of purified glucokinase; format: biochemical, Zymomonas mobilis; details: other: approximate values, assay conditions: 25° C., 50 mM K-Morpholinopropane sulphonate, 30 mM NaCl, 2 mM MgCl2, pH 6.8

glucose 6-phosphate [glucose 6-phosphate dehydrogenase]
Km [1]: 170 µM

OC[C@H]1OC(O)[C@H](O)[C@@H](O)[C@@H]1O (stereo partly drawn) [glucose]
Ki ([2]; competitive inhibitor with fructose): 200 µM | enzyme activity in the presence of glucose ([2]; glucose at 5-10 mM or more, low levels of fructose): essentially inactive

B1: Zymomonas mobilis fructokinase EC 2.7.1.4 (Zymomonas mobilis subsp. mobilis ZM4 = ATCC 31821) (protein)
chain: MKNDKKIYGCIEGGGTKFMLALIDSDRKMLAVERVPTTTPEETLGKSVEFFKKALPQYADSFASFGIASFGPLCLDRKSPKWGYITNTPKPFWPNTDVVTPFKEAFGCPVEIDTDVNGAALAENFWGASKGTHTSVYVTVGTGFGGGVLIDGKPIHGLAHPEMGHGIPIRHPDDRDFEGCCPYHGGCYEGLASGTAIRKRWGKALNEMEPAEFEKAREIIAFYLAHFNVTLQAFISPERIVFGGGVMHVDGMLASVRRQTAEIANSYFEGADFEKIIVLPGLGDQAGMMGAFALALAAENK
notes: endogenous in cells; host or cells: Zymomonas mobilis cells (enzyme extracted and purified from the organism itself)
Km [3]: 500 µM | Km [4]: 400 µM

B2: Zymomonas mobilis glucose 6-phosphate dehydrogenase EC 1.1.1.49 (Zymomonas mobilis subsp. mobilis ZM4 = ATCC 31821) (protein)
chain: MTNTVSTMILFGSTGDLSQRMLLPSLYGLDADGLLADDLRIVCTSRSEYDTDGFRDFAEKALDRFVASDRLNDDAKAKFLNKLFYATVDITDPTQFGKLADLCGPVEKGIAIYLSTAPSLFEGAIAGLKQAGLAGPTSRLALEKPLGQDLASSDHINDAVLKVFSEKQVYRIDHYLGKETVQNLLTLRFGNALFEPLWNSKGIDHVQISVAETVGLEGRIGYFDGSGSLRDMVQSHILQLVALVAMEPPAHMEANAVRDEKVKVFRALRPINNDTVFTHTVTGQYGAGVSGGKEVAGYIDELGQPSDTETFVAIKAHVDNWRWQGVPFYIRTGKRLPARRSEIVVQFKPVPHSIFSSSGGILQPNKLRIVLQPDETIQISMMVKEPGLDRNGAHMREVWLDLSLTDVFKDRKRRIAYERLMLDLIEGDATLFVRRDEVEAQWVWIDGIREGWKANSMKPKTYVSGTWGPSTAIALAERDGVTWYD
notes: as for B1
Km [5]: 210 µM | Km [6]: 40 µM

B3: Zymomonas mobilis glucokinase EC 2.7.1.2 (Zymomonas mobilis subsp. mobilis ZM4 = ATCC 31821) (protein)
chain: MEIVAIDIGGTHARFSIAEVSNGRVLSLGEETTFKTAEHASLQLAWERFGEKLGRPLPRAAAIAWAGPVHGEVLKLTNNPWVLRPATLNEKLDIDTHVLINDFGAVAHAVAHMDSSYLDHICGPDEALPSDGVITILGPGTGLGVAHLLRTEGRYFVIETEGGHIDFAPLDRLEDKILARLRERFRRVSIERIISGPGLGNIYEALAAIEGVPFSLLDDIKLWQMALEGKDNLAEAALDRFCLSLGAIAGDLALAQGATSVVIGGGVGLRIASHLPESGFRQRFVSKGRFERVMSKIPVKLITYPQPGLLGAAAAYANKYSEVE
notes: Glucokinase so obtained is almost homogenous by electrophoretic criteria; endogenous in cells; host or cells: Zymomonas mobilis cells (enzyme extracted and purified from the organism itself)
Km [7]: 200 µM | Km [8]: 800 µM
